Blank lines part the entries; values can stand above or below the binder they belong to.
Key:
[1] = biological target: T1, ectodomain of human pIgR (R&D Systems Cat #2717-PG) (human, UniProt P01833 19-638); test: designation in the sequence table; clones from phage selection and ELISA screening on pIgR ectodomain
T1 construct: extracellular domain; Bought protein, immobilised on Maxisorp plates; also called pIgR ectodomain

[2] = biological target: T1, ectodomain of human pIgR (R&D Systems …); test: ELISA, pIgR ectodomain coated at 5 ug/ml, 10 ul periplasmic extract in 100 ul, anti-myc detection
Protocol: (§1) In short, 5 ug/ml pIgR ectodomain was immobilized on Maxisorp microtiter plates (Nunc) and free binding sites were blocked using 4% Marvel in PBS. Next, 10 ul of periplasmic extract containing Nanobody of the different clones in 100 ul 2% Marvel PBST were allowed to bind to the immobilized antigen. […] Binding specificity was determined based on OD values compared to controls having received no Nanobody (low control).

[3] = biological target: T2, ectodomain of human FcgR1 (R&D Systems Cat #1257-FC) (human, UniProt P12314 16-292); test: designation in the sequence table; clones from phage selection and ELISA screening on FcgR1 ectodomain
T2 construct: extracellular domain; Bought protein, immobilised on Maxisorp plates; also called FcgR1 ectodomain; Fc gamma R1

[4] = biological target: T2, ectodomain of human FcgR1 (R&D Systems …); test: ELISA, FcgR1 ectodomain coated at 3 ug/ml, 10 ul periplasmic extract in 100 ul, anti-myc detection
Protocol: as §1, with “3” for “5”, “FcgR1” for “pIgR”

[5] = biological target: T1, ectodomain of human pIgR (R&D Systems …); test: competition ELISA, pIgR ectodomain coated at 5 ug/ml, 1 ug/ml IgA preincubated with purified Nanobody at 1600, 200, 25 and 3.3 nM, bound IgA detected with anti-IgA; blocked ligand IgA

T2 sequence (P12314 16-292): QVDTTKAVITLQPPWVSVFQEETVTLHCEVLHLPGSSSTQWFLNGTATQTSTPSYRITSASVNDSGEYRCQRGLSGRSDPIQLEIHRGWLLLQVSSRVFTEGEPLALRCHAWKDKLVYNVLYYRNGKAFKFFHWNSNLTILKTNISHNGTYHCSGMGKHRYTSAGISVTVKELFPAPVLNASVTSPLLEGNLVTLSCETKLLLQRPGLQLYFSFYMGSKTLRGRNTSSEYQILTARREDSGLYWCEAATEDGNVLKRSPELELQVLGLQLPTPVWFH
T1 sequence (P01833 19-638): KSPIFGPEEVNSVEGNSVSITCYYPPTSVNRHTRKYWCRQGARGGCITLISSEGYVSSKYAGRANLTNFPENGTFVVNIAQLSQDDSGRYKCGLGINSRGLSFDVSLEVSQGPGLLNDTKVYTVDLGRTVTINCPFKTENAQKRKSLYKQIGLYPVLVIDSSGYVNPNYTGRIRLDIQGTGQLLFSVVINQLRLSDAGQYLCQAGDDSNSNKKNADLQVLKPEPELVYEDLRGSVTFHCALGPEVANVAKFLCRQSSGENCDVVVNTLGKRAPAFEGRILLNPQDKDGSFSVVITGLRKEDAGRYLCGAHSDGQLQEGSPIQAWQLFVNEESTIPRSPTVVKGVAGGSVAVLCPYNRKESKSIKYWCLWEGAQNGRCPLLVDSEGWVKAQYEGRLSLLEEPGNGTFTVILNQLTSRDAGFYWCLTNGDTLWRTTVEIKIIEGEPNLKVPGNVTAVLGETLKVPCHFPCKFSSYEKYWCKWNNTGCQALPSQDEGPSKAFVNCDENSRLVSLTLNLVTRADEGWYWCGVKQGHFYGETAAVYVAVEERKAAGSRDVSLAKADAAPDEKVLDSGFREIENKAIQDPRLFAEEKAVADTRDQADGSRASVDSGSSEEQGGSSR

binding result [4]: binds
B10: 49 E4 (VHH)
VHH: EVQLVESGGGLVQAGDSLTLSCVASGRTFNNYGMGWFRQAPGKEREFVASINWGNGKTYYANSVKDRFAISKDHAKNTVYLQMNSLKPEDTALYYCAAVSSNTETFDTWGQGIQVTVSS
notes: Nanobody against FcgR1

binding result [4]: binds
B11: 49F9 (VHH)
VHH: EVQLVESGGGLVQAGDSLTLSCVASGRTFNNYGMGWFRQAPGKEREFVASINWGNGKTYYANPVKDRFAISKDHAKNTVYLQMNSLKPEDTALYYCAAVSSNTETFDTWGQGIQVTVSS
notes: Nanobody against FcgR1

binding result [3]: binds
B12: 49F4 (VHH)
VHH: EVQLVESGGGLVQAGDSLTLSCVASGRTFSANGMGWFRQAPGKEREFVASIAWGDGNTYYANSVKDRFAISKDHAKNTVYLQMNSLKPEDTALYYCAAVSSNSETFDTWGQGIQVTVSS
notes: Nanobody against FcgR1

binding result [4]: binds
B13: 49D4 (VHH)
VHH: EVQLVESGGGLVQAGDSLTLSCVASGRRFSAYGMGWFRQAPGKEREFVASINWGDGNTYYANSVKDRFAISKDHAKNTVYLQMNSLKPEDTALYYCAAVSSNTEIFDTWGQGIQVTVSS
notes: Nanobody against FcgR1

binding result [4]: binds
B14: 48D6 (VHH)
VHH: EVQLVESGGGLVQAGDSLTLSCVASGRTFSAYGMGWFRQAPGKEREFVASINWGGGNTYYANSVKDRFAISKDHAKNTVYLQMNSLKPEDTALYYCAAVSSNTEIFDTWGQGIQVTVSS
notes: Nanobody against FcgR1

binding result [2]: binds
B16: 4_a7 (VHH)
VHH: EVQLVESGGGLVQAGGSLRLSCEDSGRTFGDYIMGWFRQAPGKERDFVAAISWTGDSTYYKYYSDSAKGRFTASRDNAKNTAYLQMNGLKPEDTAVYYCAARTFRIDYDPRTASTYNYWGQGIQVTVSS
notes: Nanobody against pIgR

binding result [1]: binds
B17: 4C11 (VHH)
VHH: EVQLVESGGGLVQPGGSLRLSCAASGFTFSSYAMTWVRQGLGKGLEWVSIISGNGGSTSYADSVKGRFTISRDNAKNTLYLQMNSLKPEDTAVYYCAKWDGLGTLPGSQGTQVTVSS
notes: Nanobody against pIgR

binding result [1]: binds
B18: 4 E9 (VHH)
VHH: EVQLVESGGGLVQAGGSLRLSCAASGSILSTNDMGWYRQAPGNQRELVARISRGSSTIYTESVKGRFTISRDNAKNTVYLQMNSLKPEDTAVYYCNADMLPSDLSHGYYYRDYWGQGTQVTVSS
notes: Nanobody against pIgR

binding result [2]: binds
B19: 4_h1 (VHH)
VHH: EVQLVKSGGGLVQAGDSLRLSCAASGRTSSSVTMGWFRQAPGKERDFVAAISWSGGSTYYADSVKGRFTISRDNAKNTVYLQMNSLKPEDTAVYYCAAVVPSDPIIYYTDYVDYDYWGQGTQVTVSS
notes: Nanobody against pIgR

binding result [1]: binds
B20: 2_d2 (VHH)
VHH: EVQLVESGGGQVQAGGSLRLSCVASERTFSYYDLAARAWFRQAPGKERELVSASTWNGGYTYYVDSVKGRFTVSTDDAGDTMYLQMNSLEPEDTAVYYCAARRAYSSDLHDYRTFDYWGQGTQVTVSS
notes: Nanobody against pIgR

binding result [2]: binds
B21: 1_g10 (VHH)
VHH: EVQLVESGGGLVQAGDSLRLSCAASGRTFSTYAMAWFRQAPGKDREFVAAISWSSDMTYYLDSVKGRFTISRDNAKNTVFLQMNSLKPEDTAVYYCASGAYYAGSSTSPYNYWGQGTQVTVSS
notes: Nanobody against pIgR

binding result [3]: binds
B23: 49 E10 (VHH)
VHH: EVQLVESVGGLVQTGGSLRLSCVASGRTFVSGGMGWFRQAPGKEREFVAAIVWIGGRTYYADSVKGRFTISGDNAKSTVTLQMNSLKPEDTALYYCADGDLATGTYDYWGQGTQVTVSS
notes: Nanobody against FcgR1

Further lines, the binder ahead of its results:

B1: 2_f3 (VHH)
VHH: EVQLVESGGGLVQAGGSLRLSCAASGRTFTIYTMGWFRQAPGKAREFISALRWSGGSTYTFYADSVKGRFTISRDNAKNTLYLQMNSLKSEDTAIYYCGMVDPRAPYMRPDSTDSYAYWGQGTQVTVSS
notes: Nanobody against pIgR
binding result [1]: binds

B2: 1B7 (VHH)
VHH: EVQLVESGGGLVQAGGSLRLSCAASGFTFDDYAIGWFRQAPGKEREWVSCISRSDGSTYYADSVKGRFTISSDNAKNTVYLQMNSLKPEDTAVYHCAADAIGSFPCPAGVYDYWGQGTQVTVSS
notes: Nanobody against pIgR
binding result [1]: binds

B3: 4_g6 (VHH)
VHH: EVQLVESGGGLVQAGGSLRLSCAASGFTFDDYAIGWFRQAPGKEREGVSCISSRDGTTYYADSVKGRFTISSDNAKNTVYLQMNSLKPEDTAVYYCAADLVGSFPCPVAAYDYWGQGTQVTVSS
notes: Nanobody against pIgR
binding result [2]: binds

B4: 4G11 (VHH)
VHH: EVQLVESGGGLVQAGGSLRLSCAASGFTFDDYAIGWFRQAPGKEREGVSCISSRDGMTYYADSVKGRFTISSDNARNTVYLQMNSLKPEDTAVYYCAADLVGSFPCPVAAYDYWGQGTQVTVSS
notes: Nanobody against pIgR
binding result [1]: binds

B5: 1 E2 (VHH)
VHH: EVQLVESGGGLVQAGGSLRLSCVASGFILREYNMGWFRQAPGKEREIVAAIAWTGTNSYYVDSVKGRFTISRDDTKNTVYLQMNSLNPEDTGVYHCAAEGYVSNFPRSSADEYDYWGQGTQVTVSS
notes: Nanobody against pIgR
binding result [1]: binds

B6: 4_e11 (VHH)
VHH: EVQLVESGGGLVQAGGSLRLSCAASGFTFDDYAIGWFRQAPGKEREGVSCINNSDGSTYYADSVKGRFTISSDNAKNTVYLQMNSLKPEDTAVYYCAADFVGGSYCLFPTYNYWGQGTQVTVSS
notes: Nanobody against pIgR
binding result [1]: binds

B7: 1C7 (VHH)
VHH: EVQLVESGGGLVQPGGSLRLSCAASGFAFSRYGMYWVRQAPGKGLEWVSTINSGGDYIIYADSVKGRFTISRDNAKNTLYLQMNSLKPEDTAVYYCAEGYRGSEWPPPAFTLQRADFASWGQGTQVTVSS
notes: Nanobody against pIgR
binding result [1]: binds

B8: 1C2 (VHH)
VHH: EVQLVESGGGLAQPGGSLRLSCAASGFAFSSYWMYWVRQAPGKGLEWVSAISTGGGGTYYADSVKGRFTISRDNAKNTLYLQMNSLKPEDTARYYCARDEAPTFDYSGNYAYTGSDPNDYWGQGTQVTVSS
notes: Nanobody against pIgR
binding result [1]: binds

B9: 48D11 (VHH)
VHH: EVQLVESGGGLVQAGDSLTLSCVASGRTFSNYGMGWFRQAPGKEREFVASINWGDGNTYYANSVKDRFAISKDHAKNTVYLQMNSLKPEDTALYYCAAVSSNTEIFDTWGQGIQVTVSS
notes: Nanobody against FcgR1
binding result [3]: binds

B15: 1D7 (VHH)
VHH: EVQLVESGGGLVQSGGSLRLSCAASGRAFNYYAMGWFRQAPGKERELVAVINWSGGTTSYADSVKGRFTISRSNAKNTVYLQMSSLKPEDTAVYYCAADSIYRTSKDYNYWGQGTQVTVSS
notes: Nanobody against pIgR
IC50 (read off the curve) [5]: ~80 nM

B22: 49C5 (VHH)
VHH: EVQLVESGGGLVQAGGSLGLSCVASGRTFVSGGMGWFRQAPGKEREFVASIVWIGGRTYYADSVKGRFTISGDNAKSTVTLQMNSLKPEDTATYYCADGDLATGTYDYWGQGTQVTVSS
notes: Nanobody against FcgR1
binding result [4]: binds
